B1: WW domain-containing transcription regulator protein 1, residues 116 to 162; numbered along this chain, Q9GZV5 (parent)
chain: QSYDVTDELPLPPGWEMTFTATGQRYFLNHIEKITTWQDPRKAMNQP

± gives the uncertainty stated by the source.

This series covers variants of B1. Put plainly: abundance fitness (aPCA) (normalised: wild type 0, dead -1); higher = more abundant; growth selection in yeast, the domain comes from the species named. The note with it: Homo sapiens.
For the variant M17I, the abundance fitness is -0.09 ± 0.044.

As to M17N, the abundance fitness was -0.582 ± 0.046.

With M17P, the abundance fitness is -0.345 ± 0.037.

M17L: the abundance fitness was -0.067 ± 0.031.

As for M17S, the abundance fitness was -0.102 ± 0.026.

For M17V, the abundance fitness is -0.05 ± 0.024.

As to M17R, the abundance fitness is -0.279 ± 0.026.

For M17F, the abundance fitness was -0.172 ± 0.036.

Regarding M17G, the abundance fitness is -0.366 ± 0.026.

Turning to M17K, the abundance fitness is -0.214 ± 0.047.

Consider M17Q, for which the abundance fitness came to 0.037 ± 0.044.

With M17T, the abundance fitness was -0.094 ± 0.037.

As for M17C, the abundance fitness is -0.035 ± 0.032.

Regarding M17E, the abundance fitness was found to be 0.017 ± 0.028.

Take M17W: the abundance fitness was -0.369 ± 0.026.

With M17D, the abundance fitness is -0.414 ± 0.046.

For M17Y, the abundance fitness was -0.264 ± 0.044.

For M17H, the abundance fitness was -0.44 ± 0.05.

As for P13Y, the abundance fitness was -0.112 ± 0.051.

On to P13R, for which the abundance fitness was -0.082 ± 0.028.

Regarding P13V, the abundance fitness was -0.058 ± 0.029.

With P13Q, the abundance fitness amounted to 0.026 ± 0.037.

In the case of P13T, the abundance fitness was -0.072 ± 0.045.

With P13W, the abundance fitness is -0.245 ± 0.04.

With P13N, the abundance fitness is -0.022 ± 0.052.

With P13S, the abundance fitness was -0.067 ± 0.024.

Consider A21K, for which the abundance fitness was -0.019 ± 0.033.

Take A21Q: the abundance fitness is -0.272 ± 0.06.

Regarding A21D, the abundance fitness was -0.029 ± 0.042.

As to A21W, the abundance fitness is -0.448 ± 0.048.

On to A21S, for which the abundance fitness was -0.014 ± 0.028.

Turning to A21T, the abundance fitness is -0.039 ± 0.03.

For the variant A21G, the abundance fitness was -0.072 ± 0.025.

With A21I, the abundance fitness is -0.1 ± 0.052.

For the variant A21H, the abundance fitness was -0.108 ± 0.058.

A21R: the abundance fitness is -0.109 ± 0.036.

Take A21M: the abundance fitness was -0.079 ± 0.051.

For A21Y, the abundance fitness is -0.299 ± 0.031.

Regarding A21N, the abundance fitness is 0.019 ± 0.048.

A21E: the abundance fitness was -0.002 ± 0.036.

A21C: the abundance fitness was -0.167 ± 0.05.

On to A21P, for which the abundance fitness is -0.088 ± 0.05.

W15I: the abundance fitness is -0.802 ± 0.094.

As to W15E, the abundance fitness was -0.689 ± 0.076.

As to W15T, the abundance fitness was -0.753 ± 0.067.

As to W15V, the abundance fitness was -0.69 ± 0.054.

As for W15H, the abundance fitness is -0.876 ± 0.17.

Consider W15Y, for which the abundance fitness was -0.351 ± 0.063.

On to W15F, for which the abundance fitness is -0.311 ± 0.055.

As to W15L, the abundance fitness was -0.89 ± 0.046.

Turning to W15D, the abundance fitness is -0.532 ± 0.054.

Regarding W15G, the abundance fitness is -0.636 ± 0.048.

As for W15K, the abundance fitness was -0.784 ± 0.076.

For the variant W15N, the abundance fitness is -0.616 ± 0.028.

As to W15P, the abundance fitness is -1.09 ± 0.15.

As for W15R, the abundance fitness is -0.625 ± 0.029.

As for W15A, the abundance fitness was -0.913 ± 0.08.

With W15M, the abundance fitness was -0.695 ± 0.039.

Consider W15C, for which the abundance fitness was -0.627 ± 0.03.

Regarding W15Q, the abundance fitness is -0.5 ± 0.071.

In the case of W15S, the abundance fitness was -0.686 ± 0.026.

With G14L, the abundance fitness is -0.823 ± 0.029.

For G14V, the abundance fitness is -0.748 ± 0.037.

Regarding G14Q, the abundance fitness is -0.467 ± 0.048.

As for G14M, the abundance fitness is -0.505 ± 0.026.

On to G14D, for which the abundance fitness is -0.259 ± 0.032.

G14E: the abundance fitness is -0.21 ± 0.037.

On to G14Y, for which the abundance fitness is -0.421 ± 0.028.

For the variant G14R, the abundance fitness was -0.583 ± 0.036.

As for G14I, the abundance fitness is -1 ± 0.12.

For the variant G14S, the abundance fitness is -0.379 ± 0.036.

For the variant G14C, the abundance fitness is -0.475 ± 0.042.

Regarding G14P, the abundance fitness is -0.378 ± 0.043.

Take G14A: the abundance fitness was -0.365 ± 0.027.

For the variant G14K, the abundance fitness is -0.466 ± 0.027.

For G14F, the abundance fitness was -0.534 ± 0.054.

G14N: the abundance fitness was -0.071 ± 0.043.

In the case of G14W, the abundance fitness is -0.491 ± 0.036.

As for T20S, the abundance fitness was -0.115 ± 0.041.

For T20L, the abundance fitness was -0.519 ± 0.045.

Take T20P: the abundance fitness was -0.937 ± 0.13.

In the case of T20A, the abundance fitness is -0.287 ± 0.036.

With T20E, the abundance fitness is -0.387 ± 0.054.

As to T20C, the abundance fitness was -0.356 ± 0.029.

Consider T20K, for which the abundance fitness is -0.873 ± 0.13.

In the case of T20R, the abundance fitness is -0.65 ± 0.041.

Turning to T20Y, the abundance fitness is -0.796 ± 0.038.

In the case of T20N, the abundance fitness is -0.081 ± 0.054.

In the case of T20Q, the abundance fitness is -0.924 ± 0.15.

Regarding T20M, the abundance fitness is -0.295 ± 0.076.

For the variant T20G, the abundance fitness was -0.381 ± 0.03.

As for T20H, the abundance fitness is -0.451 ± 0.041.

As to T20W, the abundance fitness is -1 ± 0.052.

E16L: the abundance fitness was -0.364 ± 0.046.

Regarding E16V, the abundance fitness was -0.193 ± 0.027.

As for E16S, the abundance fitness is -0.081 ± 0.027.

In the case of E16A, the abundance fitness was -0.217 ± 0.047.

With E16G, the abundance fitness was -0.22 ± 0.03.

On to E16R, for which the abundance fitness is -0.365 ± 0.027.

As for E16C, the abundance fitness is -0.28 ± 0.051.

With E16W, the abundance fitness is -0.389 ± 0.06.

Take E16M: the abundance fitness was -0.387 ± 0.038.

For the variant E16I, the abundance fitness was -0.266 ± 0.028.

Take E16F: the abundance fitness was -0.326 ± 0.046.

Take E16Q: the abundance fitness was -0.035 ± 0.069.

For E16P, the abundance fitness was -0.864 ± 0.085.

In the case of E16H, the abundance fitness was -0.684 ± 0.12.

Consider E16N, for which the abundance fitness was -0.58 ± 0.091.

With E16T, the abundance fitness is -0.215 ± 0.037.

Turning to E16Y, the abundance fitness is -0.78 ± 0.13.

E16D: the abundance fitness is -0.039 ± 0.05.

G23I: the abundance fitness is -0.917 ± 0.12.

In the case of G23D, the abundance fitness was -0.361 ± 0.048.

As to G23H, the abundance fitness was -0.476 ± 0.064.

With G23F, the abundance fitness is -1.15 ± 0.23.

On to G23C, for which the abundance fitness is -0.79 ± 0.031.

Consider T22G, for which the abundance fitness was -0.052 ± 0.024.

Consider T22A, for which the abundance fitness is -0.092 ± 0.031.

Take T22S: the abundance fitness is -0.058 ± 0.033.

For the variant T22D, the abundance fitness stood at 0.104 ± 0.032.

For the variant T22P, the abundance fitness was -0.557 ± 0.043.

For the variant T22N, the abundance fitness was -0.086 ± 0.041.

Regarding T22E, the abundance fitness is -0.028 ± 0.031.

For the variant T22C, the abundance fitness was -0.033 ± 0.034.

Take T22V: the abundance fitness was -0.37 ± 0.029.

For the variant T22Y, the abundance fitness is -0.422 ± 0.061.

For the variant T22H, the abundance fitness is -0.184 ± 0.035.

As for T22M, the abundance fitness is -0.277 ± 0.05.

For T22K, the abundance fitness is -0.087 ± 0.034.

On to T22F, for which the abundance fitness is -0.35 ± 0.045.

With T22L, the abundance fitness was -0.192 ± 0.034.

With T22W, the abundance fitness is -0.357 ± 0.034.

Turning to T22Q, the abundance fitness is -0.141 ± 0.045.

Consider F19L, for which the abundance fitness is -0.115 ± 0.031.

F19C: the abundance fitness was -0.274 ± 0.066.

As to F19R, the abundance fitness is -0.089 ± 0.032.

As for F19S, the abundance fitness was -0.106 ± 0.041.

As for F19G, the abundance fitness was -0.425 ± 0.027.

Take F19W: the abundance fitness was -0.021 ± 0.027.

F19M: the abundance fitness is -0.185 ± 0.047.

In the case of F19Y, the abundance fitness is -0.082 ± 0.042.

Take F19T: the abundance fitness was -0.108 ± 0.049.

With F19D, the abundance fitness was -0.319 ± 0.046.

In the case of F19P, the abundance fitness was -0.597 ± 0.033.

For F19K, the abundance fitness is -0.047 ± 0.045.

As for F19E, the abundance fitness is -0.017 ± 0.03.

For the variant F19I, the abundance fitness stood at 0.023 ± 0.065.

On to F19V, for which the abundance fitness is -0.054 ± 0.032.

For F19Q, the abundance fitness was -0.121 ± 0.051.

Consider F19H, for which the abundance fitness was -0.385 ± 0.13.

With F19A, the abundance fitness is -0.06 ± 0.03.

Take T18W: the abundance fitness was -0.245 ± 0.036.

T18A: the abundance fitness stood at 0.023 ± 0.037.

As to T18M, the abundance fitness was -0.056 ± 0.046.

Regarding T18S, the abundance fitness turned out to be 0.05 ± 0.034.

Turning to T18P, the abundance fitness was -0.85 ± 0.081.

Take T18L: the abundance fitness was -0.047 ± 0.037.

For the variant T18Y, the abundance fitness is -0.086 ± 0.051.

With T18C, the abundance fitness is -0.009 ± 0.036.

As to T18E, the abundance fitness was -0.064 ± 0.03.

For T18V, the abundance fitness was -0.035 ± 0.035.

Regarding T18N, the abundance fitness was -0.159 ± 0.053.

Regarding T18Q, the abundance fitness was determined as 0.045 ± 0.051.

T18K: the abundance fitness is 0.097 ± 0.031.

For the variant T18R, the abundance fitness came out at 0.094 ± 0.031.

Turning to T18D, the abundance fitness was -0.018 ± 0.034.

For T18G, the abundance fitness is 0.018 ± 0.028.

For the origin of these results see the Human Domainome abundance scans (Beltran et al. 2025).
